Here are results for 1 substance from patent US20100285988.

The subject of data set [1] is βCTF-FLAG (recombinant β-secretase cleaved APP C-terminal fragment).
Data set [2] relates to Aβ17-23 (LVFFAED) peptide.
For data set [3], the system named is βCTFΔ (Aβ17-23 deleted form of βCTF).

Take “γ-secretase (human; HeLa cell membrane / solubilized HeLa membrane; endogenous in HEK293 cells)”: in data set [1], the Vmax result is “Vmax values are 16±1 and 215±24 min^-1 µg^-1 for βCTF and βCTFΔ, respectively”; the “apparent Km (Aβ40 production, ECL)” value is given as “the apparent Km is 0.47±0.09 µM for βCTF”; the “rate of γ-secretase hydrolysis (X40 product, ECL) relative to αCTF-FLAG” value was “The rate of γ-secretase hydrolysis of βCTF-FLAG is 12-fold greater than for hydrolysis of αCTF-FLAG”. In data set [2], the “potency on Notch cleavage relative to APP-derived substrates” value is “the potency of this peptide is 6-fold less potent in the proteolytic cleavage of Notch by γ-secretase than that of APP-derived substrates”. Moreover, in data set [3], the Vmax result was “Vmax values are 16±1 and 215±24 min^-1 µg^-1 for βCTF and βCTFΔ, respectively”; the “Vmax/Km or kcat/Km relative to βCTF” value is given as “is 42-fold greater than for the βCTF substrate”; the “apparent Km (Aβ40 production, ECL)” value is 0.26±0.09 µM for βCTFA.
